Test results as given in patent US20200317768A1 (published 2020).
Numbering of substitutions follows the chain as printed.

B1: M103205H795-MY525/M103202L889-SK1 (antibody, human IgG1, kappa)
heavy: QVTLKESGPVLVKPTETLTLTCTVSGIDLSHDDISWVRQAPGKGLEWVGIISYAGSTYYASWAKGRLTISKDTSKNQVVLTMTNMDPVDTATYYCARGVPAYSHGGDLWGQGTLVTVSSASTKGPSVFPLAPSSKSTSGGTAALGCLVKDYFPEPVTVSWNSGALTSGVHTFPAVLQSSGLYSLSSVVTVPSSSLGTQTYICNVNHKPSNTKVDKKVEPKSCDKTHTCPPCPTPELLTGPVVFLFPPKPKDTLMISRTPEVTCVVVDVSDEDPEVKFNWYVDGVEVHNAKTKPREEQYNSTYRVVSVLTVLHQDWLNGKEYKCKVSNKALPKPIEKTISKAKGQPREPQVYTLPPSREEMTKNQVSLTCLVKGFYPSDIAVEWESNGQPENNYKTTPPVLDSDGSFFLYSKLTVDKSRWQQGNVFSCSVMHEALHNHYTQKSLSLSP
light: DIVMTQSPATLSLSPGERATLSCTSSQSVYHANWLSWFQQKPGQPPKLLIYWASTLAYGVPSRFSGSGSGTDFTLTISSLQPEDAATYYCAGGYGGGRYAFGQGTKVEIKRTVAAPSVFIFPPSDEQLKSGTASVVCLLNNFYPREAKVQWKVDNALQSGNSQESVTEQDSKDSTYSLSSTLTLSKADYEKHKVYACEVTHQGLSSPVTKSFNRGEC
notes: Substitutions introduced into M103205H795-SG1, expressed with M103202L889-SK1 as light chain; EU numbering
B2: M103205H795-MY527/M103202L889-SK1 (antibody, human IgG1, kappa)
heavy: B1 heavy with V241S, Q297L
light: B1 light
notes: as for B1
B3: M103205H795-MY529/M103202L889-SK1 (antibody, human IgG1, kappa)
heavy: B1 heavy with T233A, L236W, V241S, Q297L
light: B1 light
notes: as for B1
B4: M103205H795-MY526/M103202L889-SK1 (antibody, human IgG1, kappa)
heavy: B1 heavy with Q297L
light: B1 light
notes: as for B1
B5: M103205H795-MY532/M103202L889-SK1 (antibody, human IgG1, kappa)
heavy: B1 heavy with T233A, L236W
light: B1 light
notes: as for B1
B6: M103205H795-MY530/M103202L889-SK1 (antibody, human IgG1, kappa)
heavy: B1 heavy with T233A, V241S, K328T
light: B1 light
notes: as for B1
B7: M103205H795-MY531/M103202L889-SK1 (antibody, human IgG1, kappa)
heavy: B1 heavy with T233A, L236W, V241S, K328T
light: B1 light
notes: as for B1
B8: M103205H795-MY528/M103202L889-SK1 (antibody, human IgG1, kappa)
heavy: B1 heavy with T233A, L236W, V241S
light: B1 light
notes: as for B1

Biological target: T1, human FcγRIIaR extracellular domain with C-terminal His-tag (human, UniProt P12318 34-217)
T1 construct: also called human FcgRIIaR; FcγRIIa (type R)
T1 chain: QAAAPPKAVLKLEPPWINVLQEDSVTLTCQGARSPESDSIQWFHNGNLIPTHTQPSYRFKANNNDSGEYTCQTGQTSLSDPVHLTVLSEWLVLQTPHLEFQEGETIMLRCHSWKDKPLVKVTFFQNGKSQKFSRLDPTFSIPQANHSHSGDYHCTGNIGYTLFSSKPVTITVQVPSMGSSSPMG
Test: SPR (BIACORE); KD of SG1 / KD of variant;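 further: relative to parent M103205H795-SG1 carrying the SG1 human heavy chain constant region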

Binder	KD fold (SG1 = 1) [fold]
B1	6.5
B2	3.8
B3	2.1
B4	5.2
B5	3.8
B6	4.1
B7	2.7
B8	2
